Measured values: patent US20170369572A1 (CELGENE, published 2017)

Columns and labels:
[1] = molecular target: T1, human CD47 on CCRF-CEM cells (human, UniProt Q08722 19-323); experiment: flow cytometry on CCRF-CEM cells, MFI against concentration, one site specific binding with Hill slope
T1 construct: Endogenous CD47 on the human T lymphoblast line CCRF-CEM (ATCC CCL-119); also called CD47-positive CCRF-CEM cells; CCRF-EM cells
Procedure: To obtain binding curves, sample variants were titrated 1:2 in FACS buffer (PBS 2% FCS) starting from a high concentration of ˜66 nM for each sample. 0.1×10⁶ CCRF-EM cells were plated in a 96 well plate and incubated in 50 μl FACS buffer containing the indicated concentration of sample variants for 1 hour in ice. Cells were then washed with 150 μ1 FACS buffer and incubated in 50 μl FACS buffer containing the secondary antibody (anti-human-IgG-PE, Jackson ImmunoResearch) diluted 1:100, for 1 hr in ice. Cells were then washed with FACS buffer and fixed in 2% PFA for acquisition with LSR II, DB flow cytometer (BD Biosciences, San Jose, Calif.). Flow Cytometry analysis was performed using FloJo software Version 9.6.4. To obtain titration curves and Kd, Mean Fluorescence Intensity (MFI) values were plotted against concentration (nM). Kd values were calculated using Prism 6, Non linear regression curve fit analysis, One Site Specific Binding with Hill Slope.

[2] = molecular target: T2, human C1q (human, UniProt P02745 23-245; P02746 28-253; P02747 29-245); experiment: C1q binding ELISA, antibody coated and titrated from 133.4 nM, human C1q at 2 µg/mL, detected with anti-C1q HRP
T2 construct: also called C1q (AbD Serotec 2221-5504)
Procedure: Method: 96-well high protein binding ELISA plates (MaxSorp Nunc) were coated overnight at 4° C. with sample anti-CD47 antibody variants diluted in 0.05 M Sodium Bicarbonate Buffer (pH 9). Samples were diluted at a high concentration of 133.4 nM (20 μg/ml) and titrated 1:2 in an 11-point dilution curve. Plates were washed three times in PBS, 0.05% Tween 20 and blocked for 1 hour at room temperature with ELISA Diluent (0.1 M NAPO₄, 0.1 M NaCl, 0.1% gelatin, 0.05% Tween 20, 0.05% ProClin300). Plates were then washed again three times and incubated for two hours at room temperature with 2 μg/mL human C1q (AbD Serotec 2221-5504, 1 mg/mL stock) diluted in ELISA Diluent. Plates were then washed three times and incubated with sheep anti-human C1q HRP (AbD Serotec 2221-5004P) diluted 1:200 in ELISA Diluent for 1 hour at room temperature to detect bound Clq. Plates were then washed three times, then 100 μL of TMB solution was added. Reaction was quenched by adding 100 μl of 1M Phosphoric Acid and plate was read at 450 nm. Data are plotted using Prism6 as non-linear regression with log (inhibitor) vs. response—Variable slope (four parameters).

T2 sequence (P02745 23-245 limits assumed, chain 1 of 3): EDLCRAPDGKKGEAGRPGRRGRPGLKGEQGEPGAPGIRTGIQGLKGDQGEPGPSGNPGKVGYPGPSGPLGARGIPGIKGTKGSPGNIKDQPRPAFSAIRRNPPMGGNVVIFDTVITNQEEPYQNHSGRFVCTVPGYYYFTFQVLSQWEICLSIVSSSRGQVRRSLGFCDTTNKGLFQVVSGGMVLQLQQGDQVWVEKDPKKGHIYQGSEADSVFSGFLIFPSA
T2 sequence (P02746 28-253 limits assumed, chain 2 of 3): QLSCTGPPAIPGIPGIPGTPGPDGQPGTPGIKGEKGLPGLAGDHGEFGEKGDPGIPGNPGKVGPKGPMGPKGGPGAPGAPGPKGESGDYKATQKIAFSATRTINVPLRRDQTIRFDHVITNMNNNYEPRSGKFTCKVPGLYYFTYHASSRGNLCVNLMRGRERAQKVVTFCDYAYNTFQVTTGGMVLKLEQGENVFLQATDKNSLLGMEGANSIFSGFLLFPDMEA
T2 sequence (P02747 29-245 limits assumed, chain 3 of 3): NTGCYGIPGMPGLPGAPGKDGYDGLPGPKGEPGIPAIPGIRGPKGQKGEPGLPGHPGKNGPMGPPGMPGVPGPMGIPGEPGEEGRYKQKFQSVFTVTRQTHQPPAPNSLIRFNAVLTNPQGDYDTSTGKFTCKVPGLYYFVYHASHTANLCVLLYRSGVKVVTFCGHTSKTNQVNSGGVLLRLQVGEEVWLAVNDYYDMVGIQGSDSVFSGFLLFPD

Kd [1]: 0.18 nM | EC50 [2]: 3.6 nM
B1: anti-CD47 antibody IgG1-parental, CHO expressed (antibody)
VH: not shown
VL: NIQMTQSPSAMSASVGDRVTITCKASQDIHRYLSWFQQKPGKVPKHLIYRANRLVSGVPSRFSGSGSGTEFTLTISSLQPEDFATYYCLQYDEFPYTFGGGTKVEIKRTVAAPSVFIFPPSDEQLKSGTASVVCLLNNFYPREAKVQWKVDNALQSGNSQESVTEQDSKDSTYSLSSTLTLSKADYEKHKVYACEVTHQGLSSPVTKSFNRGEC
notes: Parental antibody as IgG1, made in CHO cells; also called IgG1-QN1-CHO
